In the assay the target is T1, LacI-CFP-Nup50 (human), Q9UKX7.
T1 chain: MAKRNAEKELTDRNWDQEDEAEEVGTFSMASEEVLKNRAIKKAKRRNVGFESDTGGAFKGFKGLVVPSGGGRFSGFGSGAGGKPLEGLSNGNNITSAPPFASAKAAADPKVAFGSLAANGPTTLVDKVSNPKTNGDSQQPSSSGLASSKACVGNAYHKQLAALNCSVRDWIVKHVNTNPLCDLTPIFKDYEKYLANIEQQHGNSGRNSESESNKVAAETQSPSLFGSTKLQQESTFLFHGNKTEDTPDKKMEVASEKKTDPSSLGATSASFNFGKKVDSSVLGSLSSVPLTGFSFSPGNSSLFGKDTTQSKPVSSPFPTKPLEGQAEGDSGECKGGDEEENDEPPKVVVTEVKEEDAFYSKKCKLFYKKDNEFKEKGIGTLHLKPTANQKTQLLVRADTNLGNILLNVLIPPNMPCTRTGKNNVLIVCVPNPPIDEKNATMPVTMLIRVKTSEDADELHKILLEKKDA
Kind of assay: LacI/LacO array recruitment in cells. Particulars: remark: other sources report otherwise.

B1: Nup93 (endogenous), Q8N1F7 1-819 (natural protein)
chain: MDTEGFGELLQQAEQLAAETEGISELPHVERNLQEIQQAGERLRSRTLTRTSQETADVKASVLLGSRGLDISHISQRLESLSAATTFEPLEPVKDTDIQGFLKNEKDNALLSAIEESRKRTFGMAEEYHRESMLVEWEQVKQRILHTLLASGEDALDFTQESEPSYISDVGPPGRSSLDNIEMAYARQIYIYNEKIVNGHLQPNLVDLCASVAELDDKSISDMWTMVKQMTDVLLTPATDALKNRSSVEVRMEFVRQALAYLEQSYKNYTLVTVFGNLHQAQLGGVPGTYQLVRSFLNIKLPAPLPGLQDGEVEGHPVWALIYYCMRCGDLLAASQVVNRAQHQLGEFKTWFQEYMNSKDRRLSPATENKLRLHYRRALRNNTDPYKRAVYCIIGRCDVTDNQSEVADKTEDYLWLKLNQVCFDDDGTSSPQDRLTLSQFQKQLLEDYGESHFTVNQQPFLYFQVLFLTAQFEAAVAFLFRMERLRCHAVHVALVLFELKLLLKSSGQSAQLLSHEPGDPPCLRRLNFVRLLMLYTRKFESTDPREALQYFYFLRDEKDSQGENMFLRCVSELVIESREFDMILGKLENDGSRKPGVIDKFTSDTKPIINKVASVAENKGLFEEAAKLYDLAKNADKVLELMNKLLSPVVPQISAPQSNKERLKNMALSIAERYRAQGISANKFVDSTFYLLLDLITFFDEYHSGHIDRAFDIIERLKLVPLNQESVEERVAAFRNFSDEIRHNLSEVLLATMNILFTQFKRLKGTSPSSSSRPQRVIEDRDSQLRSQARTLITFAGMIPYRTSGDTNARLVQMEVLMN
Regarding B1, the percent of transfected cells showing colocalization came to 28%.

These data come from article PMC4615246.
